From paper PMC11286949, “Structural basis of tRNA recognition by the widespread OB fold”
Changes are numbered by the printed parent chain.

Columns and labels:
Test in all cases: ITC; ITC (Arc1p): 25 mM Tris-HCl pH 7.4, 150 mM NaCl, 2 mM MgCl2, 25 °C. FP and competition FP: 25 mM Tris-HCl pH 7.5, 150 mM NaCl (Arc1p) or 50 mM NaCl (Trbp111), 2 mM MgCl2, room temperature
Details in all cases: protein: recombinant; tags: His-MBP removed; tRNA fold
Arc1p = target: T1, Arc1p (Saccharomyces cerevisiae, UniProt P46672 1-376)
T1 sequence: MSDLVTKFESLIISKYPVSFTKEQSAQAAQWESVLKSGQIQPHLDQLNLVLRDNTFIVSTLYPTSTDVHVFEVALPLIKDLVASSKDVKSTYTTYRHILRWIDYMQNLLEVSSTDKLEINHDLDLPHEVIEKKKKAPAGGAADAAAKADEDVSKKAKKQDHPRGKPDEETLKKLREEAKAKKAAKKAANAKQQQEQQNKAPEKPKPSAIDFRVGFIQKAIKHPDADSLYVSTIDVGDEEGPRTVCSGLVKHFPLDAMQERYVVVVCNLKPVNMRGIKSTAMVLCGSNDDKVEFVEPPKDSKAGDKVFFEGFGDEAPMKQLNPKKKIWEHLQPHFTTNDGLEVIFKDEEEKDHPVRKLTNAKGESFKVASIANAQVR

Arc1p dN = target: T2, Arc1p dN (Saccharomyces cerevisiae, UniProt P46672 132-376, del1-131)
T2 sequence: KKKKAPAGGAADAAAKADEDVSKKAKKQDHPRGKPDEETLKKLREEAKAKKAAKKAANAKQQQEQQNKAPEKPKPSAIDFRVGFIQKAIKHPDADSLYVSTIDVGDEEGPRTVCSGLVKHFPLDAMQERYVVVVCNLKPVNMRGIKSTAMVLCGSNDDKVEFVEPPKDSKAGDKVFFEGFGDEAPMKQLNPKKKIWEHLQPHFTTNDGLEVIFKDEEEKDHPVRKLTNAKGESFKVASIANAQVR

Arc1p dN S278A/M281A = target: T3, Arc1p dN S278A/M281A (Saccharomyces cerevisiae, UniProt P46672 132-376, S278A;M281A;del1-131)
T3 sequence: T2 sequence with S147A, M150A

Arc1p dN R274A = target: T4, Arc1p dN R274A (Saccharomyces cerevisiae, UniProt P46672 132-376, R274A;del1-131)
T4 sequence: T2 sequence with R143A

Arc1p dN S278A = target: T5, Arc1p dN S278A (Saccharomyces cerevisiae, UniProt P46672 132-376, S278A;del1-131)
T5 sequence: T2 sequence with S147A

B1: tRNAIle WT (structured_RNA)
RNA: AGGCUUGUAGCUCAGGUGGUUAGAGCGCACCCCUGAUAAGGGUGAGGUCGGUGGUUCAAGUCCACUCAGGCCUACCA
Kd (Arc1p): 1.28 ± 0.13 µM | Kd (Arc1p dN): 0.321 ± 0.101 µM | Kd (Arc1p dN S278A/M281A): 1.43 ± 0.379 µM | Kd (Arc1p dN R274A): 2.98 ± 0.674 µM | Kd (Arc1p dN S278A): 0.845 ± 0.149 µM
